In US20210379110A1 (LENTIGEN TECHNOLOGY, published 2021):

T1: TSLPR-Fc peptide (R&D systems) (UniProt Q9HC73 25-231)
T1 construct: Bought reagent (R&D systems); also called TSLPR-Fc reagent; not shown: Fc part of the bought reagent
T1 sequence (looked up): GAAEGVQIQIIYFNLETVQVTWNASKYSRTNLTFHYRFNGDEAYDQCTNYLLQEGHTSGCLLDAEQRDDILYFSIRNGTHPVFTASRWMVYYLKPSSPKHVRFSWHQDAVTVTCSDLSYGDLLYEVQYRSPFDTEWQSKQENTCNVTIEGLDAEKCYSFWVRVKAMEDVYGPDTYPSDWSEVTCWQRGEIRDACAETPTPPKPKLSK

T2: CD22-Fc peptide (R&D systems) (UniProt P20273 20-687)
T2 construct: Bought reagent (R&D systems); not shown: Fc part of the bought reagent
T2 sequence (looked up): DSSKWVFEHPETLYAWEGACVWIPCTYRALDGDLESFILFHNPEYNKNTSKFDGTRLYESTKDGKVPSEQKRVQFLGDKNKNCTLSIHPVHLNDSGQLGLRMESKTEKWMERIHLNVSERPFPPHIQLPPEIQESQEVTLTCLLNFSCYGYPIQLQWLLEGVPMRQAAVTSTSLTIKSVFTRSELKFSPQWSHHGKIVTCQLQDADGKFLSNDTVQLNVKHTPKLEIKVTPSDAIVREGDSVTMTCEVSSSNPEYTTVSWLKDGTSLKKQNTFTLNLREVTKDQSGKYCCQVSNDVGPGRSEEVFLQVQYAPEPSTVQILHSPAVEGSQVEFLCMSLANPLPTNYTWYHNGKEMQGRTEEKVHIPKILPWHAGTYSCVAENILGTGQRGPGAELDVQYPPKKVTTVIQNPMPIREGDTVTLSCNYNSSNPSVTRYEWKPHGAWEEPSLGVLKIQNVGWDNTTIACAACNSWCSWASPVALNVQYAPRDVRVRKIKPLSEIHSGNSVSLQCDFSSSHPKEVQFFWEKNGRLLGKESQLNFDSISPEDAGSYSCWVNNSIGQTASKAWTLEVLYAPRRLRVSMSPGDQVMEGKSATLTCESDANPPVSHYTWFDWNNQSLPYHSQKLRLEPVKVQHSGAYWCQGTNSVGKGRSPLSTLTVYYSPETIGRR

B1: D0101 (EF-1a-TSLPR-CD19 (19217_1) CD8 BBz) (other)
chain: QVTLKESGPGILKPSQTLSLTCSFSGFSLSTSGMGVGWIRQPSGKGLEWLAHIWWDDDKYYNPSLKSQLTISKDTSRNQVFLKITSVDTADTATYYCSRRPRGTMDAMDYWGQGTSVTVSSGGGGSGGGGSGGGGSDIVMTQAASSLSASLGDRVTISCRASQDISKYLNWYQQKPDGTVKLLIYYTSRLHSGVPSRFSGSGSGTDYSLTIRNLEQEDIATYFCQQVYTLPWTFGGGTKLEIKGGGGSGGGGSGGGGSGGGGSGGGGSEVQLVQSGAEVKKPGASVKVSCKASGYTFTSYYMHWVRQAPGQGLEWMGLINPSGGSTSYAQKFQGRVTMTRDTSTSTVYMELSSLRSEDTAVYYCARSDRGITATDAFDIWGQGTMVTVSSGGGGSGGGGSGGGGSQSVLTQPPSVSVAPGRMAKITCGGSDIGNKNVHWYQQKPGQAPVLVVYDDYDRPSGIPERFSGSNSGDAATLTISTVEVGDEADYFCQVWDGSGDPYWMFGGGTQLTVLGAAATTTPAPRPPTPAPTIASQPLSLRPEACRPAAGGAVHTRGLDFACDIYIWAPLAGTCGVLLLSLVITLYCKRGRKKLLYIFKQPFMRPVQTTQEEDGCSCRFPEEEEGGCELRVKFSRSADAPAYQQGQNQLYNELNLGRREEYDVLDKRRGRDPEMGGKPRRKNPQEGLYNELQKDKMAEAYSEIGMKGERRRGKGHDGLYQGLSTATKDTYDALHMQALPPR
notes: also called CAR TSLPR-19 BBz; tandem D0101 TSLPR×CD19 CAR
B2: D0102 (EF-1a-CD19 (19217_1)-TSLPR CD8 BBz) (other)
chain: EVQLVQSGAEVKKPGASVKVSCKASGYTFTSYYMHWVRQAPGQGLEWMGLINPSGGSTSYAQKFQGRVTMTRDTSTSTVYMELSSLRSEDTAVYYCARSDRGITATDAFDIWGQGTMVTVSSGGGGSGGGGSGGGGSQSVLTQPPSVSVAPGRMAKITCGGSDIGNKNVHWYQQKPGQAPVLVVYDDYDRPSGIPERFSGSNSGDAATLTISTVEVGDEADYFCQVWDGSGDPYWMFGGGTQLTVLGGGGGSGGGGSGGGGSGGGGSGGGGSQVTLKESGPGILKPSQTLSLTCSFSGFSLSTSGMGVGWIRQPSGKGLEWLAHIWWDDDKYYNPSLKSQLTISKDTSRNQVFLKITSVDTADTATYYCSRRPRGTMDAMDYWGQGTSVTVSSGGGGSGGGGSGGGGSDIVMTQAASSLSASLGDRVTISCRASQDISKYLNWYQQKPDGTVKLLIYYTSRLHSGVPSRFSGSGSGTDYSLTIRNLEQEDIATYFCQQVYTLPWTFGGGTKLEIKAAATTTPAPRPPTPAPTIASQPLSLRPEACRPAAGGAVHTRGLDFACDIYIWAPLAGTCGVLLLSLVITLYCKRGRKKLLYIFKQPFMRPVQTTQEEDGCSCRFPEEEEGGCELRVKFSRSADAPAYQQGQNQLYNELNLGRREEYDVLDKRRGRDPEMGGKPRRKNPQEGLYNELQKDKMAEAYSEIGMKGERRRGKGHDGLYQGLSTATKDTYDALHMQALPPR
notes: also called CAR 19-TSLPR BBz; tandem D0102 CD19×TSLPR CAR
B3: D0103 (EF-1a-TSLPR-CD22 (16P17) CD8 BBz) (other)
chain: QVTLKESGPGILKPSQTLSLTCSFSGFSLSTSGMGVGWIRQPSGKGLEWLAHIWWDDDKYYNPSLKSQLTISKDTSRNQVFLKITSVDTADTATYYCSRRPRGTMDAMDYWGQGTSVTVSSGGGGSGGGGSGGGGSDIVMTQAASSLSASLGDRVTISCRASQDISKYLNWYQQKPDGTVKLLIYYTSRLHSGVPSRFSGSGSGTDYSLTIRNLEQEDIATYFCQQVYTLPWTFGGGTKLEIKGGGGSGGGGSGGGGSGGGGSGGGGSQVQLQQSGPGLVKHSQTLSLTCAISGDSVSSNSAAWNWIRQSPSRGLEWLGRTYYRSKWYNDYAVSVKSRITINPDTSKNQFSLQLNSVTPEDTAVYYCAQEVEPHDAFDIWGQGTMVTVSSGGGGSGGGGSGGGGSDIQMTQSPSSVYASVGDKVTITCRASQDVSGWLAWYQQKPGLAPQLLISGASTLQGEVPSRFSGSGSGTDFTLTISSLQPEDFATYYCQQAKYFPYTFGQGTKLEIKAAATTTPAPRPPTPAPTIASQPLSLRPEACRPAAGGAVHTRGLDFACDIYIWAPLAGTCGVLLLSLVITLYCKRGRKKLLYIFKQPFMRPVQTTQEEDGCSCRFPEEEEGGCELRVKFSRSADAPAYQQGQNQLYNELNLGRREEYDVLDKRRGRDPEMGGKPRRKNPQEGLYNELQKDKMAEAYSEIGMKGERRRGKGHDGLYQGLSTATKDTYDALHMQALPPR
notes: Tandem chimeric antigen receptor on human primary T cells: leader, TSLPR scFv 3G11 (membrane-distal), (GGGGS)5, CD22 scFv 16P17, CD8 hinge/TM, 4-1BB, CD3 zeta; also called CAR TSLPR-22 BBz; tandem D0103 TSLPR×CD22 CAR
B4: D0104 (EF-1a-CD22 (16P17)-TSLPR CD8 BBz) (other)
chain: QVQLQQSGPGLVKHSQTLSLTCAISGDSVSSNSAAWNWIRQSPSRGLEWLGRTYYRSKWYNDYAVSVKSRITINPDTSKNQFSLQLNSVTPEDTAVYYCAQEVEPHDAFDIWGQGTMVTVSSGGGGSGGGGSGGGGSDIQMTQSPSSVYASVGDKVTITCRASQDVSGWLAWYQQKPGLAPQLLISGASTLQGEVPSRFSGSGSGTDFTLTISSLQPEDFATYYCQQAKYFPYTFGQGTKLEIKGGGGSGGGGSGGGGSGGGGSGGGGSQVTLKESGPGILKPSQTLSLTCSFSGFSLSTSGMGVGWIRQPSGKGLEWLAHIWWDDDKYYNPSLKSQLTISKDTSRNQVFLKITSVDTADTATYYCSRRPRGTMDAMDYWGQGTSVTVSSGGGGSGGGGSGGGGSDIVMTQAASSLSASLGDRVTISCRASQDISKYLNWYQQKPDGTVKLLIYYTSRLHSGVPSRFSGSGSGTDYSLTIRNLEQEDIATYFCQQVYTLPWTFGGGTKLEIKAAATTTPAPRPPTPAPTIASQPLSLRPEACRPAAGGAVHTRGLDFACDIYIWAPLAGTCGVLLLSLVITLYCKRGRKKLLYIFKQPFMRPVQTTQEEDGCSCRFPEEEEGGCELRVKFSRSADAPAYQQGQNQLYNELNLGRREEYDVLDKRRGRDPEMGGKPRRKNPQEGLYNELQKDKMAEAYSEIGMKGERRRGKGHDGLYQGLSTATKDTYDALHMQALPPR
notes: Tandem chimeric antigen receptor on human primary T cells: leader, CD22 scFv 16P17 (membrane-distal), (GGGGS)5, TSLPR scFv 3G11, CD8 hinge/TM, 4-1BB, CD3 zeta; also called CAR 22-TSLPR BBz; tandem D0104 CD22×TSLPR CAR

Legend:
[1] = biological target: T1, TSLPR-Fc peptide (R&D systems); assay: flow cytometry, CAR T cells stained with TSLPR-Fc then anti-Fc AF647
Method: Flow cytometric analysis was performed to detect the CAR molecule surface expression. Half million of harvested primary T cells were washed and stained with cold AutoMACS buffer supplemented with 0.5% bovine serum albumin (Miltenyi Biotec, Bergisch Gladbach, Germany), and resuspended in 200 ul Running Buffer before acquired by MACSQuant®10 Analyzer (Miltenyi Biotec Bergisch Gladbach, Germany). For CAR surface expression, TSLPR Fc, CD19Fc and CD22Fc peptide (R&D systems, Minneapolis, Minn.) were used followed anti Fc-AF647 (Jackson ImmunoResearch, West Grove, Pa.). T cell subtypes was further identified with anti-CD4 antibody conjugated to VioBlue fluorophore (Miltenyi Biotec Bergisch Gladbach, Germany). Dead cells in all studies were excluded by 7AAD staining (BD Biosciences, San Jose, Calif.). Flow data were analyzed with MACSQuantify software.
Specific detection of each scFv domain within the CAR structure was facilitated by CAR T cell staining with TSLPR-Fc peptide, or CD19-Fc peptide, followed by a secondary staining with anti-Fc AF647-labeled reagent, and fluorescence was detected in the APC channel. In CAR construct D0101, in which CD19 scFv was membrane-proximal and the TSLPR scFv was membrane-distal, the TSLPR scFv was detected at 44% of the transduced cells, and CD19 scFv was detected at 31%. In CAR construct D0102 with the reverse binder orientation (i.e. the TSLPR scFv membrane-proximal, and CD19 scFv membrane-distal), the detection levels were 85% and 75% for scFv TSLPR and CD19, respectively (FIG. 2).

[2] = biological target: T2, CD22-Fc peptide (R&D systems); assay: flow cytometry, CAR T cells stained with CD22-Fc then anti-Fc AF647
Method: For CAR surface expression, TSLPR Fc, CD19Fc and CD22Fc peptide (R&D systems, Minneapolis, Minn.) were used followed anti Fc-AF647 (Jackson ImmunoResearch, West Grove, Pa.). T cell subtypes was further identified with anti-CD4 antibody conjugated to VioBlue fluorophore (Miltenyi Biotec Bergisch Gladbach, Germany). Dead cells in all studies were excluded by 7AAD staining (BD Biosciences, San Jose, Calif.). Flow data were analyzed with MACSQuantify software.
To develop the tandem CD22 and TSLPR targeting CARs, CD22-directed scFv 16P17 was used in either membrane-proximal or membrane-distal orientation (construct D0103 and D0104, respectively). For TSLPR-targeting, scFv 3G11 was used. Surface expression of the tandem TSLPR×CD22 CAR incorporating the human ScFv 16P17 together with the TSLPR scFv 3G11, when the TSLPR scFv is positioned in the membrane-distal orientation (D0103), or in the membrane-proximal orientation (D0104) is shown in FIG. 5. Specific detection of each scFv domain within the CAR structure was facilitated by CAR T cell staining with TSLPR-Fc peptide, or CD22-Fc peptide, followed by a secondary staining with anti-Fc AF647-labeled reagent, and detected in the APC channel by flow cytometry. In CAR construct D0103, in which CD22 scFv was membrane-proximal and the TSLPR scFv was membrane-distal, the TSLPR scFv was detected at 26% of the transduced cells, and CD22 scFv was detected at 11%. In CAR construct D0104 with the opposite binder orientation (i.e. the CD22 scFv was membrane-distal, and the TSLPR scFv was membrane-proximal), the detection levels were 75% and 39% for scFv TSLPR and CD22, respectively (FIG. 5).
The surface expression of the tandem TSLPR×CD22 CAR incorporating the human ScFv m971 in membrane-proximal orientation (D0111), and in the membrane-distal orientation (D0112) is shown in FIG. 8. Specific detection of each scFv domain within the CAR structure was facilitated by CAR T cell staining with TSLPR-Fc peptide, or CD22-Fc peptide, followed by a secondary staining with anti-Fc AF647-labeled reagent and detection in the APC channel by flow cytometry. In CAR construct D0111, in which CD22 scFv was membrane-proximal and the TSLPR scFv was membrane-distal, the TSLPR scFv was detected at 34% of the transduced cells, and CD22 scFv was detected at 11%.

Binder | percent of transduced T cells stained by antigen-Fc [1] [%] | percent of transduced T cells stained by antigen-Fc [2] [%]
B1 | 44 | 
B2 | 85 | 
B3 | 26 | 11
B4 | 75 | 39
